Like-named read-outs stand apart in the source and are kept apart here.
T1: MMP2 (human, UniProt P08253 30-660)
T1 sequence (looked up): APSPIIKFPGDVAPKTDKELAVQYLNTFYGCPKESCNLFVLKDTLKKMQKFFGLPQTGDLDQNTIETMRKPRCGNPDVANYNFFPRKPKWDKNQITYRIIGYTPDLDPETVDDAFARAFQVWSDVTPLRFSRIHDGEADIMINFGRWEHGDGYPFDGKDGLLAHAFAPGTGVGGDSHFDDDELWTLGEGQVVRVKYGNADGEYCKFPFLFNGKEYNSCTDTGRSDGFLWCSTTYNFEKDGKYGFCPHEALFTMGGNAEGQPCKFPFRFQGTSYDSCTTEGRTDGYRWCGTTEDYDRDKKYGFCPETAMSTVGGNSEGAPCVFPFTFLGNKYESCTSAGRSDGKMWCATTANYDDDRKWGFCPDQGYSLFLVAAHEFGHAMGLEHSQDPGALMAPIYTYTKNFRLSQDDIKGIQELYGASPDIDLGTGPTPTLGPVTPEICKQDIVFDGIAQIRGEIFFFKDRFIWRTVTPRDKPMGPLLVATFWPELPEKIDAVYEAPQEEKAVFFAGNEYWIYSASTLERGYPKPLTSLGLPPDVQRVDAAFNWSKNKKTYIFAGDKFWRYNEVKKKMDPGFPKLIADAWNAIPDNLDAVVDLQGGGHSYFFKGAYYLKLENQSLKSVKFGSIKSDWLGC


Legend:
Assay in all cases: cell-based or functional assay
MMP9 (human) = MMP9 (human) (UniProt P14780)
MMP2 (human) = MMP2 (human) (UniProt P08253)
MMP9 [1] = molecular target: T2, MMP9 (human, UniProt P14780 107-457, limits assumed)
MMP2 [2] = molecular target: T1, MMP2
MMP9 [3] = molecular target: T2, MMP9; remark: listed apart in the source
MMP2 [4] = molecular target: T1, MMP2; remark: listed apart in the source
[5] = molecular target: TNF alpha converting enzyme (TACE) (UniProt P78536)
MMP9 [6] = molecular target: T2, MMP9; remark: listed apart in the source
MMP2 [7] = molecular target: T1, MMP2; remark: listed apart in the source
[8] = molecular target: TNF alpha converting enzyme (TACE) (UniProt P78536 215-671, limits assumed)
MMP9 [9] = molecular target: T2, MMP9; remark: listed apart in the source
MMP2 [10] = molecular target: T1, MMP2; remark: listed apart in the source

Sequence of TNF alpha converting enzyme (TACE) (UniProt P78536) (P78536 215-671 limits assumed): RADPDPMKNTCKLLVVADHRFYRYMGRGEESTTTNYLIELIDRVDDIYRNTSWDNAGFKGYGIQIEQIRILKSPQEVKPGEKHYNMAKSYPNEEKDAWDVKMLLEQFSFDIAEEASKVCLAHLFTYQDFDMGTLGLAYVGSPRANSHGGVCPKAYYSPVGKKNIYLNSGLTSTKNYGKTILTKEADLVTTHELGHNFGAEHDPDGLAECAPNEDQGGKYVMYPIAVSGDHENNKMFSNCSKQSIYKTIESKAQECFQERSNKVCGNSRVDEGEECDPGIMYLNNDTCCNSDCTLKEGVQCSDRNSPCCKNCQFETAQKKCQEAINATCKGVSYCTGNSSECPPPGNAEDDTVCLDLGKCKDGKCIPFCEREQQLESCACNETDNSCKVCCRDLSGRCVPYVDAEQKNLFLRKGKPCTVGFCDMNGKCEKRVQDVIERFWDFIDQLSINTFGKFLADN
T2 sequence (P14780 107-457 limits assumed): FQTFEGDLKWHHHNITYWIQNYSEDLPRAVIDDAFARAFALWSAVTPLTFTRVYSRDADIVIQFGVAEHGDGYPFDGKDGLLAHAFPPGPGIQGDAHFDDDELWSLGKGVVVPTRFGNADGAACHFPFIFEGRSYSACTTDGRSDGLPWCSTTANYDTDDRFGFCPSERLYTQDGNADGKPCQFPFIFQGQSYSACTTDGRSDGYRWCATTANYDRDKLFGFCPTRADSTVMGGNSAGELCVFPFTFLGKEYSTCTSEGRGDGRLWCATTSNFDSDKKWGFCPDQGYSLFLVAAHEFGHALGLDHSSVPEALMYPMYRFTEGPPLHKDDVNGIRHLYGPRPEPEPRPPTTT
Sequence of MMP9 (human) (P14780 107-457 limits assumed): as above
Sequence of TNF alpha converting enzyme (TACE) (UniProt P78536 215-671, limits assumed) (P78536 215-671 limits assumed): as the sequence (P78536 215-671 limits assumed) above

Row | Molecule | shift in MMP9 inhibitory activity (fold decrease) as compared to wild-type (fold decrease vs wild-type) (MMP9 [3]) | shift in MMP2 inhibitory activity (fold decrease) as compared to wild-type (fold decrease vs wild-type) (MMP2 [4]) | other results
1 | TIMP-3 [H78N, Q80T, K94N, E96T, D110N, K112T, R138T] (SEQ ID NO:26) fused to HSA (from UniProt P02768 25-609) |  |  | MMP9 EC50 (inhibition of MMP activity, FRET peptide substrate) (MMP9 (human)): 5.1 nM; MMP2 EC50 (inhibition of MMP activity, FRET peptide substrate) (MMP2 (human)): 1.4 nM
2 | N-TIMP3 fused to HSA (from UniProt P02768 25-609) |  |  | MMP9 EC50 (inhibition of MMP activity, FRET peptide substrate) (MMP9 (human)): 36.5 nM; MMP2 EC50 (inhibition of MMP activity, FRET peptide substrate) (MMP2 (human)): 38.7 nM
3 | TIMP-3 [H78N, Q80T, K94N, E96T, D110N, K112T, R138T] (SEQ ID NO:26) fused to IgG (from UniProt P35625 24-211) |  |  | MMP9 EC50 (inhibition of MMP activity, FRET peptide substrate) (MMP9 [1]): 26 nM; MMP2 EC50 (inhibition of MMP activity, FRET peptide substrate) (MMP2 [2]): 14 nM
4 | TIMP-3 [K45N, V47T, P56N, G58T, K94N, E96T, R138T] (SEQ ID NO:4) (protein, 4 engineered N-linked glycosylation sites (# EG, Table 2)) CTCSPSHPQDAFCNSDIVIRANVTGKKLVKEGNFTTLVYTIKQMKMYRGFTKMPHVQYIHTEASESLCGLNLTVNKYQYLLTGRVYDGKMYTGLCNFVERWDQLTLSQRKGLNYTYHLGCNCKIKSCYYLPCFVTSKNECLWTDMLSNFGYPGYQSKHYACIRQKGGYCSWYRGWAPPDKSIINATDP | 9 | 1 | 
5 | TIMP-3 [K50N, V52T, K94N, E96T, D110N, K112T, R138T] (SEQ ID NO:16) (protein, 4 engineered N-linked glycosylation sites (# EG, Table 2)) CTCSPSHPQDAFCNSDIVIRAKVVGKNLTKEGPFGTLVYTIKQMKMYRGFTKMPHVQYIHTEASESLCGLNLTVNKYQYLLTGRVYNGTMYTGLCNFVERWDQLTLSQRKGLNYTYHLGCNCKIKSCYYLPCFVTSKNECLWTDMLSNFGYPGYQSKHYACIRQKGGYCSWYRGWAPPDKSIINATDP | 10 | 3 | shift in TACE inhibitory activity (fold decrease) as compared to wild-type (fold decrease vs wild-type) [5]: 0.6
6 | TIMP-3 [K45N, V47T, F57N, K94N, E96T, D110N, K112T] (SEQ ID NO:6) (protein, 4 engineered N-linked glycosylation sites (# EG, Table 2)) CTCSPSHPQDAFCNSDIVIRANVTGKKLVKEGPNGTLVYTIKQMKMYRGFTKMPHVQYIHTEASESLCGLNLTVNKYQYLLTGRVYNGTMYTGLCNFVERWDQLTLSQRKGLNYRYHLGCNCKIKSCYYLPCFVTSKNECLWTDMLSNFGYPGYQSKHYACIRQKGGYCSWYRGWAPPDKSIINATDP | 59 | 2 | 
7 | TIMP-3 [P56N, G58T, H78N, Q80T, K94N, E96T, R138T] (SEQ ID NO:20) (protein, 4 engineered N-linked glycosylation sites (# EG, Table 2)) CTCSPSHPQDAFCNSDIVIRAKVVGKKLVKEGNFTTLVYTIKQMKMYRGFTKMPNVTYIHTEASESLCGLNLTVNKYQYLLTGRVYDGKMYTGLCNFVERWDQLTLSQRKGLNYTYHLGCNCKIKSCYYLPCFVTSKNECLWTDMLSNFGYPGYQSKHYACIRQKGGYCSWYRGWAPPDKSIINATDP | 15 | 2 | 
8 | TIMP-3 [K50N, V52T, K94N, E96T, D110N, K112T, R138T, G173T] (SEQ ID NO:17) (protein, 5 engineered N-linked glycosylation sites (# EG, Table 2)) CTCSPSHPQDAFCNSDIVIRAKVVGKNLTKEGPFGTLVYTIKQMKMYRGFTKMPHVQYIHTEASESLCGLNLTVNKYQYLLTGRVYNGTMYTGLCNFVERWDQLTLSQRKGLNYTYHLGCNCKIKSCYYLPCFVTSKNECLWTDMLSNFTYPGYQSKHYACIRQKGGYCSWYRGWAPPDKSIINATDP | 21 | 5 | shift in TACE inhibitory activity (fold decrease) as compared to wild-type (fold decrease vs wild-type) [5]: 2
9 | TIMP-3 [P56N, G58T, K94N, E96T, D110N, K112T, R138T] (SEQ ID NO:22) (protein, 4 engineered N-linked glycosylation sites (# EG, Table 2)) CTCSPSHPQDAFCNSDIVIRAKVVGKKLVKEGNFTTLVYTIKQMKMYRGFTKMPHVQYIHTEASESLCGLNLTVNKYQYLLTGRVYNGTMYTGLCNFVERWDQLTLSQRKGLNYTYHLGCNCKIKSCYYLPCFVTSKNECLWTDMLSNFGYPGYQSKHYACIRQKGGYCSWYRGWAPPDKSIINATDP | 20 | 2 | 
10 | TIMP-3 [K45N, V47T, F57N, K94N, E96T, R138T] (SEQ ID NO:7) (protein, 4 engineered N-linked glycosylation sites (# EG, Table 2)) CTCSPSHPQDAFCNSDIVIRANVTGKKLVKEGPNGTLVYTIKQMKMYRGFTKMPHVQYIHTEASESLCGLNLTVNKYQYLLTGRVYDGKMYTGLCNFVERWDQLTLSQRKGLNYTYHLGCNCKIKSCYYLPCFVTSKNECLWTDMLSNFGYPGYQSKHYACIRQKGGYCSWYRGWAPPDKSIINATDP | 38 | 2 | 
11 | TIMP-3 [H78N, Q80T, K94N, E96T, D110N, K112T, R138T] (SEQ ID NO:26) fused to Fc (Fc fusion, not shown: a dimerising Fc or GST) CTCSPSHPQDAFCNSDIVIRAKVVGKKLVKEGPFGTLVYTIKQMKMYRGFTKMPNVTYIHTEASESLCGLNLTVNKYQYLLTGRVYNGTMYTGLCNFVERWDQLTLSQRKGLNYTYHLGCNCKIKSCYYLPCFVTSKNECLWTDMLSNFGYPGYQSKHYACIRQKGGYCSWYRGWAPPDKSIINATDP |  |  | MMP9 EC50 (inhibition of MMP activity, FRET peptide substrate) (MMP9 [3]): 32.9 nM; MMP2 EC50 (inhibition of MMP activity, FRET peptide substrate) (MMP2 [4]): 13.3 nM
12 | TIMP-3 [P56N, G58T K94N, E96T, Q126N, R138T] (SEQ ID NO:21) (protein, 4 engineered N-linked glycosylation sites (# EG, Table 2)) CTCSPSHPQDAFCNSDIVIRAKVVGKKLVKEGNFTTLVYTIKQMKMYRGFTKMPHVQYIHTEASESLCGLNLTVNKYQYLLTGRVYDGKMYTGLCNFVERWDNLTLSQRKGLNYTYHLGCNCKIKSCYYLPCFVTSKNECLWTDMLSNFGYPGYQSKHYACIRQKGGYCSWYRGWAPPDKSIINATDP | 22 | 2 | 
13 | TIMP-3 [K45S, F57N, K94N, E96T, D110N, K112T, R138T] (SEQ ID NO:12) (protein, 4 engineered N-linked glycosylation sites (# EG, Table 2)) CTCSPSHPQDAFCNSDIVIRASVVGKKLVKEGPNGTLVYTIKQMKMYRGFTKMPHVQYIHTEASESLCGLNLTVNKYQYLLTGRVYNGTMYTGLCNFVERWDQLTLSQRKGLNYTYHLGCNCKIKSCYYLPCFVTSKNECLWTDMLSNFGYPGYQSKHYACIRQKGGYCSWYRGWAPPDKSIINATDP | 74 | 3 | 
14 | TIMP-3 [H78N, Q80T, K94N, E96T, D110N, K112T, R138T] (SEQ ID NO:26) (other, 4 engineered N-linked glycosylation sites (# EG, Table 2)) CTCSPSHPQDAFCNSDIVIRAKVVGKKLVKEGPFGTLVYTIKQMKMYRGFTKMPNVTYIHTEASESLCGLNLTVNKYQYLLTGRVYNGTMYTGLCNFVERWDQLTLSQRKGLNYTYHLGCNCKIKSCYYLPCFVTSKNECLWTDMLSNFGYPGYQSKHYACIRQKGGYCSWYRGWAPPDKSIINATDP |  |  | shift in MMP9 inhibitory activity (fold decrease) as compared to wild-type (MMP9 [6]): 6 fold decrease vs wild-type; shift in MMP2 inhibitory activity (fold decrease) as compared to wild-type (MMP2 [7]): 2 fold decrease vs wild-type; shift in TACE inhibitory activity (fold decrease) as compared to wild-type [8]: 0.4 fold decrease vs wild-type; MMP9 EC50 (inhibition of MMP activity, FRET peptide substrate) (MMP9 [9]): 2.5 nM; MMP2 EC50 (inhibition of MMP activity, FRET peptide substrate) (MMP2 [10]): 1 nM
15 | TIMP-3 [K50N, V52T P56N, G58T, K94N, E96T, D110N, K112T, R138T] (SEQ ID NO:14) (protein, 5 engineered N-linked glycosylation sites (# EG, Table 2)) CTCSPSHPQDAFCNSDIVIRAKVVGKNLTKEGNFTTLVYTIKQMKMYRGFTKMPHVQYIHTEASESLCGLNLTVNKYQYLLTGRVYNGTMYTGLCNFVERWDQLTLSQRKGLNYTYHLGCNCKIKSCYYLPCFVTSKNECLWTDMLSNFGYPGYQSKHYACIRQKGGYCSWYRGWAPPDKSIINATDP | 19 | 2 | 
16 | TIMP-3 [K45N, V47T, K94N, E96T, D110N, K112T, G173T] (SEQ ID NO:10) (protein, 4 engineered N-linked glycosylation sites (# EG, Table 2)) CTCSPSHPQDAFCNSDIVIRANVTGKKLVKEGPFGTLVYTIKQMKMYRGFTKMPHVQYIHTEASESLCGLNLTVNKYQYLLTGRVYNGTMYTGLCNFVERWDQLTLSQRKGLNYRYHLGCNCKIKSCYYLPCFVTSKNECLWTDMLSNFTYPGYQSKHYACIRQKGGYCSWYRGWAPPDKSIINATDP | 9 | 2 | shift in TACE inhibitory activity (fold decrease) as compared to wild-type (fold decrease vs wild-type) [5]: 2
17 | N-TIMP3 fused to Fc (Fc fusion, part only; not given: Fc carrier, unspecified, part only) chain, part: CTCSPSHPQDAFCNSDIVIRAKVVGKKLVKEGPFGTLVYTIKQMKMYRGFTKMPHVQYIHTEASESLCGLKLEVNKYQYLLTGRVYDGKMYTGLCNFVERWDQLTLSQRKGLNYRYHLGCN |  |  | MMP9 EC50 (inhibition of MMP activity, FRET peptide substrate) (MMP9 [3]): 1.6 nM; MMP2 EC50 (inhibition of MMP activity, FRET peptide substrate) (MMP2 [4]): 6.9 nM
18 | N-TIMP3 (N-terminal TIMP-3 domain, AA 1-144) (other) CTCSPSHPQDAFCNSDIVIRAKVVGKKLVKEGPFGTLVYTIKQMKMYRGFTKMPHVQYIHTEASESLCGLKLEVNKYQYLLTGRVYDGKMYTGLCNFVERWDQLTLSQRKGLNYRYHLGCN |  |  | MMP9 EC50 (inhibition of MMP activity, FRET peptide substrate) (MMP9 [9]): 1.7 nM; MMP2 EC50 (inhibition of MMP activity, FRET peptide substrate) (MMP2 [10]): 7.6 nM

— patent US20180030116A1 (Amgen, published 2018)
